Measured values taken from the supplement of paper PMC11865577.

What was measured:
Assay in all cases: pull-down binding Z-score (relative to library population); higher = stronger binding
[1] = tested on: TO-3-N3 (biotin conjugate); settings: RNA library: Library-2
Outline: (§1)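 Heat-folded RNA library (1 μg, Cy5 or Cy3 end label, phosphate/NaCl/KCl buffer) was captured for 60 min at 25 °C on streptavidin beads displaying 100 pmol of biotin-conjugated small molecule, then washed three times. The bound fraction, eluted in hot SDS, was hybridised to a DNA barcode microarray at 55.5 °C for 20 h. Z-scores for binding were taken against the library mean and standard deviation after beads-only subtraction and trimmed averaging of replicate barcoded probes.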

[2] = tested on: TO-N3-2 (biotin conjugate); settings: RNA library: Library-2
Outline: as §1

[3] = tested on: G-clamp-N3 (biotin conjugate); settings: RNA library: Library-1 (pre-miRNA loops + repeats)
Outline: as §1

[4] = tested on: TO-3-N3-2 (biotin conjugate); settings: RNA library: Library-2
Outline: as §1

TO-N3 (biotin conjugate) = settings: RNA library: Library-2
Outline: as §1

| Sequence | pull-down binding Z-score [1] | pull-down binding Z-score [2] | pull-down binding Z-score [3] | pull-down binding Z-score [4] | pull-down binding Z-score (TO-N3 (biotin conjugate)) |
| --- | --- | --- | --- | --- | --- |
| UUUAGUAUGCCACAUUUCUAAA [hsa-mir-4282] | -0.601 | -0.699 | -1.54 | -0.374 | -0.757 |
| GGUUCCCACGCCGCGGCAACC [hsa-mir-6776] | 0.0159 | 0.293 | -1.36 | -0.135 | 0.217 |
| UUAACAUGUUGAGCAUUACUCAUGUUAG [hsa-mir-3684] | -0.527 | -0.162 | -0.319 | -0.175 | -0.597 |
| CCUGCCUGCCCUCCAGGUCAUGUUCCAGUGUCCCACAGAUGCAGCACCACGG [hsa-mir-6075] | 0.0521 | 1.54 | -0.799 | 0.186 | 0.616 |
| GGGCGUGGUGGACAGCGAUGCAUCCC [hsa-mir-6803] | 0.532 | 1.19 | 1.56 | 0.187 | 0.84 |
| ACUAAUUUUUCCACUAGUUAGU [hsa-mir-4424] | 0.228 | -1.16 | -0.61 | -0.199 | -0.137 |
| CGGUCGGAUAAUCACAUGACGAG [hsa-mir-2114] | -0.513 | 0.592 | 0.425 | -0.221 | -0.0316 |
| UUUUUUUCCAAUGAAAAUAACGAAACCUGUUAUUUCCCAUUGAGGGGGAAAAA [hsa-mir-4484] | -1.12 | -0.641 | 0.398 | -0.221 | -1.15 |
| AUUUUCACUUAAU [hsa-mir-302f] | -0.0598 | -1.17 | 0.103 | -0.267 | -0.27 |
| AUGAUUUUUGGGGUCA [hsa-mir-4678] | -0.0616 | -0.328 | 1.23 | -0.1 | -0.0941 |
| CCUGUUUUACAAAUAAGGAAAUAAACUCAGG [hsa-mir-1321] | -0.59 | -1.08 | -1.01 | -0.326 | -0.94 |
| CCAUGUGAGUGAAGCCUGAUCAUCAUGUG [hsa-mir-8070] | -0.67 | 0.588 | -0.0843 | -0.318 | -0.232 |
| GGUUUUUACCAUUAAAACC [hsa-mir-548aw] | -0.656 | -1.44 | -0.37 | -0.448 | -1.01 |
| UGUACGCUUUAUUUGUGACGUAGG [hsa-mir-1197] | -0.438 | 0.0488 | -0.171 | -0.0204 | -0.195 |
| CCUGCCACGUCAAAGGAGGCAGA [hsa-mir-3154] | -0.302 | 0.137 | 1.11 | -0.38 | -0.164 |
| UCCAGAGGCAUCCCUAACCCAGAAUCUUUUGACUGUCCUCUGGA [hsa-mir-4306] | -0.198 | -0.281 | -0.668 | -0.358 | -0.253 |
| UUGAGGAGAGCACCACAGUGGUCAUCACACAG [hsa-mir-622] | 0.0413 | 1.19 | -1.25 | 0.109 | 0.871 |
| AUAUAAAAUGCAAUUA [hsa-mir-3945] | 0.256 | -0.448 | -1.21 | 0.327 | 0.0171 |
| UCAGAUAUUUAAGUUAACAGUAUUUGA [hsa-mir-580] | -0.784 | -1.5 | 0.0815 | -0.347 | -1.1 |

| Sequence | pull-down binding Z-score [1] | pull-down binding Z-score [2] | pull-down binding Z-score [3] | pull-down binding Z-score [4] | pull-down binding Z-score (TO-N3 (biotin conjugate)) |
| --- | --- | --- | --- | --- | --- |
| GGGGAGAGGGACACGCCCUGGGCUCUGCCCAGGGUGCAGCCGGACUGACUGAG [hsa-mir-1225] | 1.55 | 1.99 | 1.58 | 1.1 | 1.95 |
| GCUGGAUUUCCCAGCUUGACUCUAAC [hsa-mir-200a] | -0.14 | -0.215 | -0.177 | -0.242 | -0.337 |
| AGGCAUUAGGAUCCUUAUUCUUGCCU [hsa-mir-4788] | -0.238 | -0.364 | -0.175 | -0.442 | -0.559 |
| UCCACCCCCAGAGAAUCCCUAAACCGGGGGUGGA [hsa-mir-1289-1] | -0.51 | -0.449 | -1.69 | -0.243 | -0.645 |
| GAGACACCCGCUACCUGGUGUU [hsa-mir-4321] | -0.271 | 0.471 | -0.619 | -0.213 | -0.0464 |
| GAGGUUGCAGUGAGCCAAGAUCGUG [hsa-mir-4459] | -0.147 | 1.33 | 2.18 | 0.278 | 0.743 |
| AGGGCCUUCUGAGCCCAGGUCCG [hsa-mir-6716] | 0.611 | 1.46 | 0.286 | 0.018 | 0.886 |
| UGGAGGAGUCUGGUGGCCUGUUCUCUU [hsa-mir-6754] | -0.348 | 0.707 | -0.0952 | -0.0949 | 0.123 |
| GGAGCCCGAGCAGCCGCGGUGAA [hsa-mir-7706] | 1.29 | 2.55 | -1.54 | 0.551 | 2.17 |
| GGCCAUCUGCUAUUCGUCCACCAACCUGACUUGAUCC [hsa-mir-7111] | -0.0213 | 0.477 | 0.0541 | 0.0293 | 0.256 |
| UUUGGCUGCCAAAAGAAAUGGCCAAA [hsa-mir-548at] | -0.656 | -0.668 | -0.71 | -0.331 | -0.547 |
| UGAUUUGUGACUUAAGAUUAAAAUCA [hsa-mir-23b] | -0.415 | -0.649 | -0.478 | 0.0381 | -0.499 |
| CUUUCUGUUGUCUGAAAGAAAAGAAAG [hsa-mir-520c_520b_519c_519b] | 0.176 | 0.38 | 0.44 | 0.102 | 0.458 |
| GCGGGAGCCAGGCCGC [hsa-mir-3185] | -0.123 | 0.896 | 3.26 | 0.0586 | -0.0208 |
| UGUAUAGUAUUAUUCAAUACC [hsa-mir-1912] | -0.222 | -0.694 | 0.737 | -0.0289 | -0.445 |
| GAGUGAAUC [hsa-mir-3610] | -0.31 | -0.552 | -0.304 | -0.35 | -0.454 |
| CUGCCAUUGAAAGUAAAGGCAA [hsa-mir-548ag-2] | 0.656 | 0.104 | 0.525 | 0.239 | 0.608 |
| UGGUGGGGGCCGGGGCAGGCCCAGCGAAA [hsa-mir-648] | 1.96 | 1.94 | 1.1 | 1.37 | 2.27 |
